Laboratory results from US20230381334A1.
Non-standard residues stand in square brackets, D forms with d. No end group written: not given here.

Target: mouse anti V5 antibody (Thermo Scientific)
Assay: ELISA: 1 ug/ml mouse anti V5 with increasing SADC, complexes captured on streptavidin via biotinylated SADC peptide, bound IgG detected with anti mouse IgG-HRP

| EC50 [µg/mL] | Binder |
| --- | --- |
| 0.007 | IPNPLLGLDGGSGDYKDDDDKGK[BiotinAca]GC (peptide, part only; not given: transferrin scaffold, part only, also: bound to transferrin scaffold, attachment site not given here) [SADC with transferrin scaffold carrying tagged V5 peptide …-(BiotinAca)GC] |
| 0.0555 | IPNPLLGLDGGSGDYKDDDDKGK[BiotinAca]GC (peptide, part only; not given: haptoglobin scaffold, part only, also: bound to haptoglobin scaffold, attachment site not given here) [SADC with haptoglobin scaffold carrying tagged V5 peptide …-(BiotinAca)GC] |
| 0.0279 | IPNPLLGLDGGSGDYKDDDDKGK[BiotinAca]GC (peptide, part only; not given: albumin scaffold, part only, also: bound to albumin scaffold, attachment site not given here) [SADC with albumin scaffold carrying tagged V5 peptide …-(BiotinAca)GC] |
